# Where no end group is shown, it is not given here.
# B1: SPOP^28–359 (speckle‐type POZ protein, residues 28–359) (domain or fragment)
# chain: KVVKFSYMWTINNFSFCREEMGEVIKSSTFSSGANDKLKWCLRVNPKGLDEESKDYLSLYLLLVSCPKSEVRAKFKFSILNAKGEETKAMESQRAYRFVQGKDWGFKKFIRRDFLLDEANGLLPDDKLTLFCEVSVVQDSVNISGQNTMNMVKVPECRLADELGGLWENSRFTDCCLCVAGQEFQAHKAILAARSPVFSAMFEHEMEESKKNRVEINDVEPEVFKEMMCFIYTGKAPNLDKMADDLLAAADKYALERLKVMCEDALCSNLSVENAAEILILADLHSADQLKTQAVDFINYHASDVLETSGWKSMVVSHPHLVAEAYRSLASA
# B2: SPOP mutBACK (SPOP 28–359 Y353E) (domain or fragment)
# chain: KVVKFSYMWTINNFSFCREEMGEVIKSSTFSSGANDKLKWCLRVNPKGLDEESKDYLSLYLLLVSCPKSEVRAKFKFSILNAKGEETKAMESQRAYRFVQGKDWGFKKFIRRDFLLDEANGLLPDDKLTLFCEVSVVQDSVNISGQNTMNMVKVPECRLADELGGLWENSRFTDCCLCVAGQEFQAHKAILAARSPVFSAMFEHEMEESKKNRVEINDVEPEVFKEMMCFIYTGKAPNLDKMADDLLAAADKYALERLKVMCEDALCSNLSVENAAEILILADLHSADQLKTQAVDFINYHASDVLETSGWKSMVVSHPHLVAEAERSLASA
# Columns and labels:
# [1] = biological target: SPOP mutBTB (SPOP 28–359 L186D L190D L193D I217K) (UniProt O43791); assay: AUC
# [2] = biological target: SPOP mutBTB (SPOP 28–359 L186D L190D L193D I217K) (UniProt O43791); assay: CG-MALS
# SPOP X‐BACK = assay: CG-MALS
# [3] = biological target: SPOP mutBACK (SPOP 28–359 Y353E) (UniProt O43791); assay: CG-MALS
# [4] = biological target: SPOP mutBACK (SPOP 28–359 Y353E) (UniProt O43791); assay: cross-linking
# cross-linking = biological target: the molecule itself; assay: cross-linking
# native MS = biological target: the molecule itself; assay: native MS
# CG-MALS = biological target: the molecule itself; assay: CG-MALS
# [5] = biological target: B2; assay: fluorescence polarisation
# [6] = biological target: B1; assay: SEC
molecule,measurement,setting,value
SPOP mutBTB (SPOP 28–359 L186D L190D L193D I217K) (from UniProt O43791 28-359) (domain or fragment),Kd,[1],32.5 µM
same,Kd,[2],36 µM
same,stoichiometry N,[2],2
SPOP X‐BACK,Kd,SPOP X‐BACK,118 µM
SPOP mutBACK (SPOP 28–359 Y353E) (from UniProt O43791 28-359) (domain or fragment),stoichiometry N,[3],2
same,stoichiometry N,[4],2
SPOP ΔBACK (domain or fragment) KVVKFSYMWTINNFSFCREEMGEVIKSSTFSSGANDKLKWCLRVNPKGLDEESKDYLSLYLLLVSCPKSEVRAKFKFSILNAKGEETKAMESQRAYRFVQGKDWGFKKFIRRDFLLDEANGLLPDDKLTLFCEVSVVQDSVNISGQNTMNMVKVPECRLADELGGLWENSRFTDCCLCVAGQEFQAHKAILAARSPVFSAMFEHEMEESKKNRVEINDVEPEVFKEMMCFIYTGKAPNLDKMADDLLAAADKYALERLKVMCEDALCSNLSVENAAEILILADLHSADQLKTQAVDFINYHASDVLETSG,stoichiometry N,cross-linking,2
B1,stoichiometry N,native MS,8
same,Kd,CG-MALS,2.4 µM
"ENLACDEVTSTTSSSST-NH2 (not fully specified (N-terminus)) [Puc peptide, residues 91–107 of Puckered, fluorescein-labelled]",Kd,[5],4.1 µM
B2,binding result,[6],binds
